This note sets out measurements from ChEMBL document CHEMBL1143427, “Interactions of ceftobiprole with beta-lactamases from molecular classes A to D” (Antimicrob Agents Chemother, 2007).

Substrate in data set [1]: CO/N=C(\C(=O)N[C@@H]1C(=O)N2C(C(=O)[O-])=C(C[N+]3(C)CCCC3)CS[C@H]12)c1csc(N)n1
Kind of data set: (§1) Activity of Klebsiella pneumoniae SHV1 assessed as drug hydrolysis by spectrophotometry.

Substrate in data set [2]: CC1(C)S[C@@H]2[C@H](NC(=O)Cc3ccccc3)C(=O)N2[C@H]1C(=O)O
The description is as §1.

Substrate in data set [3]: Nc1nc(/C(=N/O)C(=O)N[C@@H]2C(=O)N3C(C(=O)O)=C(/C=C4\CCN([C@@H]5CCNC5)C4=O)CS[C@H]23)ns1
The description is as §1.

Substrate in data set [4]: O=C(Cc1cccs1)N[C@@H]1C(=O)N2C(C(=O)[O-])=C(C[n+]3ccccc3)CS[C@H]12
Described as §1.

Substrate in data set [5]: CO/N=C(\C(=O)N[C@@H]1C(=O)N2C(C(=O)[O-])=C(C[N+]3(C)CCCC3)CS[C@H]12)c1csc(N)n1
Briefly: (§2) Ratio of Kcat to Km of Klebsiella pneumoniae SHV1 assessed as drug hydrolysis by spectrophotometry.

Substrate in data set [6]: CC1(C)S[C@@H]2[C@H](NC(=O)Cc3ccccc3)C(=O)N2[C@H]1C(=O)O
Described as §2.

Substrate in data set [7]: Nc1nc(/C(=N/O)C(=O)N[C@@H]2C(=O)N3C(C(=O)O)=C(/C=C4\CCN([C@@H]5CCNC5)C4=O)CS[C@H]23)ns1
The description is as §2.

Substrate in data set [8]: O=C(Cc1cccs1)N[C@@H]1C(=O)N2C(C(=O)[O-])=C(C[n+]3ccccc3)CS[C@H]12
The description is as §2.

B1: Beta-lactamase SHV-1 (Klebsiella pneumoniae), P0AD64 (protein)
chain: MRYIRLCIISLLATLPLAVHASPQPLEQIKLSESQLSGRVGMIEMDLASGRTLTAWRADERFPMMSTFKVVLCGAVLARVDAGDEQLERKIHYRQQDLVDYSPVSEKHLADGMTVGELCAAAITMSDNSAANLLLATVGGPAGLTAFLRQIGDNVTRLDRWETELNEALPGDARDTTTPASMAATLRKLLTSQRLSARSQRQLLQWMVDDRVAGPLIRSVLPAGWFIADKTGAGERGARGIVALLGPNNKAERIVVIYLRDTPASMAERNQQIAGIGAALIEHWQR
For the protein B1, the Km (in general, the substrate concentration at which the rate is half of its maximum) in data set [1] was determined as 81 µM; in data set [2], 16 µM; in data set [3], 130 µM; in data set [4], 160 µM. The kcat (commonly the maximal rate divided by the concentration of active sites) in data set [1] worked out at 2.1 s⁻¹; in data set [2] it was 1300 s⁻¹; in data set [3], 30 s⁻¹; in data set [4] it was 500 s⁻¹. The catalytic efficiency (kcat/Km) (commonly the second-order rate constant that governs catalysis at low substrate concentration) in data set [5] was 25000 M⁻¹ s⁻¹; in data set [6] it was 8.1e+07 M⁻¹ s⁻¹; in data set [7], 230000 M⁻¹ s⁻¹; in data set [8] it was 3.1e+06 M⁻¹ s⁻¹.
